Kd data for three molecules are collected here from paper PMC6353898, “A Rational Approach for Creating Peptides Mimicking Antibody Binding” (Scientific Reports, 2019).

The target in this assay is EGFR recombinant human protein (human) (UniProt P00533). Kind of assay: SPR; EGFR (20 µg/mL) or BSA (20 µg/mL) covalently attached (EDC/NHS) to a carboxymethylated dextran chip; peptides injected as analytes at 15 µL/min; 25 °C; PBS with 0.01% Tween 20, pH 7.4; global fit, 1:1 Langmuir model with mass transport; KD from koff/kon.

B1: Pep11 (designed binder)
peptide: WSGENGPGFYDYEA
As for B1, the dissociation constant Kd worked out at 252 nM.

B2: Pep6 (designed binder)
peptide: WSGENGPGYFDYEA
Turning to B2, the Kd was 4800 nM.

B3: Pep22 (designed binder)
peptide: WSGENGPGTFYDYEA
Consider B3, for which the Kd turned out to be 595 nM.
